We go through 1 molecule from paper PMC9621694 (2022).

Targets include rsvfv_hal_1; rsvfv_hal_3; rsvfv_hal_2.
Common to all, as to test: SPR
A general note: In SPR one partner is held on a chip, and binding of the other changes the refractive index at the surface.

B1: neutralizing antibody hRSV90 (antibody, V domains shown)
VH: EVQLVESGGGLVQPRRSLRLSCAASGFTFDDYTIHWVRQAPGKGLEWVSGITWNSGYIGYADSVKGRFTISRDNARNSLYLQMNSLRAEDTALYYCVRDAYVSGSDYYYYGLDVWGRGTLVTVSS
VL: EIVMTSSPATLSVSPGERVTLFCRASQSVISNLAWYQQKSGQAPRLLIYGASTRATGIPSRFSGSGSGTEFTLTISSLQSEDFAVYFCQQYNNWPLTFGGGTQVNVQ
The term Kd denotes the constant that tells how readily two partners part at equilibrium. Lower therefore signals a tighter complex. As to B1, the Kd with rsvfv_hal_1 came out at 900 nM; with rsvfv_hal_3 it was 1300 nM; in the assay with rsvfv_hal_2, 1000 nM.
